Consider 116 sequences from the supplement of paper PMC10724198.

± gives the standard deviation of the averaged measurements.
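Further: PSI is a weighted mean of sequencing reads over stability bins, variants kept only with over 10 reads, mCherry proximal and sfGFP distal, peptide attached via GGGS linker.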

The data set deals with Saccharomyces cerevisiae. The experiment in a line: protein stability index of tFT-peptide fusion (C-terminal peptide) (PSI (0-1 scale)); higher = more stable (slower turnover). The settings on record: genetic background: wild type; temperature: 30 C.
Take VWSDGCWVDWLL: the protein stability index was 0.733 ± 0.13.

In the case of VWSGGCVSRWSG, the protein stability index worked out at 0.745 ± 0.15. Next, VWSLGLSVVGLW: 0.649 ± 0.092; VYFLRLERVPSF: 0.696 ± 0.017; VYGGFGGGRWVI: 0.702 ± 0.087. VYGVLLGWGCVV registered a protein stability index of 0.577 ± 0.015. For VYGWSPLSEARN the value was 0.738 ± 0.025; for VYLVVSSSMDYR, 0.633 ± 0.078. Next, VYNLHRGLFLSL: 0.512 ± 0.0097. In the case of VYSAGRAVGLAG, the protein stability index is 0.673 ± 0.035. Regarding VYSGYVFRKDGI, the protein stability index was 0.695 ± 0.024.

VYTNAVPLSSNA returned a protein stability index of 0.817 ± 0.1.

Turning to VYVEMWGTSENW, the protein stability index is 0.653 ± 0.011. For WAGGGFVVGCVG the value was 0.629 ± 0.062; for WALRADGGERTG, 0.684 ± 0.021. In the case of WAPFGKMVGGPW, the protein stability index is 0.785 ± 0.027. Regarding WAPPPPYSPFSL, the protein stability index was 0.704 ± 0.0098.

WARFRKGEVRSG: the protein stability index stood at 0.748 ± 0.072. WARLVSSSLAAT showed a protein stability index of 0.61763 ± 0.00038. For WAVGGKVNEVIE, the protein stability index worked out at 0.757 ± 0.06. For WCGSSGLFLVVW, the protein stability index was 0.594 ± 0.017. For WCTLNGASLCLH the value was 0.7719 ± 0.0067. Next, WCWTYLRFSVEL: 0.677 ± 0.055; WDGGGGGFGLVV: 0.755 ± 0.06. Sequence WDGWPTRAGGTG had a protein stability index of 0.7141 ± 0.0069. Take WEGVGERVGGGA: the protein stability index is 0.638 ± 0.017.

With WENMDKCSKGLI, the protein stability index was 0.6767 ± 0.0033. WERRRGVCGGVW registered a protein stability index of 0.707 ± 0.05.

WEWGCRVEELSG returned a protein stability index of 0.742 ± 0.0086. Next, WFFRSVVPRCGG: 0.63 ± 0.038. WFPSSLPLTCIQ registered a protein stability index of 0.651 ± 0.084. As for WGAGGGGWWGGV, the protein stability index turned out to be 0.731 ± 0.03. For WGALVLAVRSAP the value was 0.642 ± 0.037; for WGEGSGRVWEIS, 0.679 ± 0.019; for WGGAGRVWVLGP, 0.696 ± 0.019. For WGGGGRGWGSRG the value was 0.684 ± 0.057; for WGGGSGRRIGCR, 0.70604 ± 0.00021. With WGGLGGREPGGS, the protein stability index worked out at 0.74 ± 0.078. For WGGVRRVRVGGQ the value was 0.723 ± 0.053; for WGLCWFGCLWGR, 0.692 ± 0.033. For WGLGVGGCGWVG the value was 0.67 ± 0.018; for WGPGGGGVSDGM, 0.768 ± 0.019; for WGQGTGFWGLFG, 0.681 ± 0.024.

Sequence WGRGEWKRGQEA displayed a protein stability index of 0.743 ± 0.053.

In turn, WGRTRGDHGGKK came in with a protein stability index of 0.686 ± 0.04. Sequence WGSWCLVPDGNE showed a protein stability index of 0.717 ± 0.084. For WGTTLMYKAKKA, the protein stability index turned out to be 0.616 ± 0.024. Consider WHACAGWLGQKG, for which the protein stability index is 0.71 ± 0.078. For WHGDDSSIWQVG the value was 0.791 ± 0.036; for WHGSVPHLWFPP, 0.59 ± 0.026; for WHIEGFGQYYSL, 0.736 ± 0.019. Next, WHRCQWTPASRP: 0.733 ± 0.05.

The sequence WIGHALPSSNSH returned a protein stability index of 0.675 ± 0.056.

The sequence WKKSIKKDTREM gave a protein stability index of 0.721 ± 0.012. Sequence WKPGSPGCQAFR gave a protein stability index of 0.6031 ± 0.0017.

Consider WKRDSCFFIEAG, for which the protein stability index was found to be 0.638 ± 0.042. For WLAVVGRDGFLG the value was 0.729 ± 0.016; for WLFSSRDSGACR, 0.8029 ± 0.0011; for WLGGIFRNKVFT, 0.621 ± 0.013. WLGSGESVGHAG displayed a protein stability index of 0.686 ± 0.067. With WLGTGIILPITG, the protein stability index was 0.793 ± 0.13. For WLGWIVNNSNTE the value was 0.753 ± 0.058. Next, WLLSVYSVGTDV: 0.589 ± 0.2. Next, WLSDSCRMNSEV: 0.666 ± 0.035; WLSLPLAHLFSP: 0.681 ± 0.047.

WLVGSGGVWSGR: the protein stability index was found to be 0.706 ± 0.019. For WLVRNVVGGGLC, the protein stability index worked out at 0.701 ± 0.046. Next, WLVSPPTPFPLP: 0.6422 ± 0.0039.

Sequence WMDNTKKGNKDS came in with a protein stability index of 0.736 ± 0.06.

Take WMSGETTHTGRP: the protein stability index amounted to 0.742 ± 0.026. In turn, WMTFTTAVTDGG came in with a protein stability index of 0.656 ± 0.046. WNLESKTEARTR returned a protein stability index of 0.704 ± 0.049. Next, WNRNVEILSALA: 0.548 ± 0.012; WNRSAFLSSGTI: 0.67578 ± 3.2e-05.

In turn, WNRVPEWTREPL came in with a protein stability index of 0.719 ± 0.022. For WNSISGRTVVYM the value was 0.709 ± 0.092. Take WPAFYTSRLLLR: the protein stability index turned out to be 0.615 ± 0.034. In the case of WPPPPPYSPFSL, the protein stability index stood at 0.737 ± 0.02. For WPVALAPTRLEI the value was 0.608 ± 0.072. For WQIRREMFECGL the value was 0.677 ± 0.025; for WRAGGGGGPAGV, 0.679 ± 0.029. For WRAGSGGGPLAS the value was 0.68 ± 0.043; for WRCAGGGGVGGG, 0.6956 ± 0.0011. Turning to WRELGCFGVRGD, the protein stability index is 0.732 ± 0.022. Next, WRLFFGVNLIKF: 0.622 ± 0.037. For WRSIQLVHDKRR the value was 0.6808 ± 0.0056; for WRVMCLQRCSGV, 0.541 ± 0.011. WRYFLGKGRMSF had a protein stability index of 0.742 ± 0.014. Take WSDGGRGGGWGK: the protein stability index amounted to 0.656 ± 0.015.

Consider WSPLFPLLASST, for which the protein stability index was determined as 0.678 ± 0.016.

Consider WSREGGVVESVG, for which the protein stability index came out at 0.709 ± 0.019. The sequence WSRGGGGHKEAM returned a protein stability index of 0.639 ± 0.022.

Sequence WSRPAGVRSSLA displayed a protein stability index of 0.7039 ± 0.00079. Consider WSRPVTFRIGLW, for which the protein stability index came to 0.653 ± 0.017. WTGGEEGTAVQA came in with a protein stability index of 0.676 ± 0.025. As for WTGTTGQSLYLS, the protein stability index was found to be 0.733 ± 0.1.

Turning to WVAADTDGEPKH, the protein stability index turned out to be 0.6986 ± 0.0057.

WVCLGWGVPRSG: the protein stability index is 0.835 ± 0.031. For WVFSGTWSSVSG, the protein stability index was determined as 0.671 ± 0.027.

As to WVGGGGGPSGVV, the protein stability index was found to be 0.733 ± 0.042. Next, WVGWVACGAGGG: 0.651 ± 0.061; WVHTLHARIGCQ: 0.625 ± 0.046.

Sequence WVKGRVKIEGGQ returned a protein stability index of 0.68 ± 0.042. In turn, WVLFWWRGRSGR had a protein stability index of 0.665 ± 0.042. WVPISPFLTPSH had a protein stability index of 0.716 ± 0.025. Next, WVSILRWDACSR: 0.685 ± 0.014. Next, WVSRDFLVEAVW: 0.557 ± 0.026.

In the case of WVTSSTRGRSGS, the protein stability index was 0.644 ± 0.033. For WWGCLGGRAGSR the value was 0.695 ± 0.028; for WWGFGRVCGGGV, 0.774 ± 0.092; for WYYTCSEFSIYN, 0.693 ± 0.0071. For YAAQLGLGVLVG, the protein stability index is 0.6 ± 0.0077. On to YACADVSDPLSV, for which the protein stability index worked out at 0.721 ± 0.019. As to YAGDPEAAAEWG, the protein stability index came out at 0.68 ± 0.052. As to YCRGGGLAKREV, the protein stability index was found to be 0.689 ± 0.021. As for YDCPLPPSGLTI, the protein stability index stood at 0.688 ± 0.036.
